In patent US12180255B2, “Compositions and methods for derepressing RE1 silencing transcription factor target genes” (Alcamena Stem Cell Therapeutics, LLC, priority 2019, dated 2024):
[ ]: non-standard residue; d: D form. ξ: configuration not given here. ξGly(dodecyl) = CCCCCCCCCCCCC(N)C(=O)O

Columns and labels:
CTDSP1 = molecular target: T1, CTDSP1 (Homo sapiens, UniProt Q9GZU7); assay: In vitro CTDSP1 phosphatase activity on phosphorylated REST peptide; format: biochemical; conditions: for Relative Phosphatase activity: 1 μM peptide-GST fusion, relative to GST control, substrate TEDpSPPpSPPLPKEN; for inhibition of phosphatase activity: 1 μM, relative to control (GST)
T1 construct: GSGS linker + His6 (C)
T1 sequence (Q9GZU7 with tags, fused parts or gaps): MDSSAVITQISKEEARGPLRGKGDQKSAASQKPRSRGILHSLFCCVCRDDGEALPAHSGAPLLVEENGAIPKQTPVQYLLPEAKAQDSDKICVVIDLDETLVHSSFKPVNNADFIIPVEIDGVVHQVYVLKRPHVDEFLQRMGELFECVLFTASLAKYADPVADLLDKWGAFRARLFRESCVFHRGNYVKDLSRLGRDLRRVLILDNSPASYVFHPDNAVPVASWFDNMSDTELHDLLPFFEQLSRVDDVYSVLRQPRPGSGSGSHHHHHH
Method: FIG. 25. In vitro CTDSP1 phosphatase activity (relative to GST control) on the REST peptide (TEDpSPPp[…] (SEQ ID NO: 329)) as a substrate after exposure to 1 μM of RPP (SEQ ID NO: 1) or one of its variants (Table 3).
FIG. 26. […] N=5, error bars are standard deviation.
Results: FIG. 25—The top 51 most abundant RPP variants identified in the RNA display/protein evolution screen are listed in-Table 3 in the order of most (V1) to least (V51) abundant peptides. The primers used to make these peptides are listed in-Table 5. A phosphatase activity screen (Table 6, FIG. 25) was used to assess the ability of the top 51 RPPV to inhibit CTDSP1 phosphatase activity at amino acids 861 and 864 on the endogenous phosphorylated REST peptide (TEDpSPPp[…] (SEQ ID NO: 329)).
The phosphorylated REST peptide (TEDpSPPp[…] (SEQ ID NO: 329)) was synthesized by GeneScript. Phosphatase reactions were performed with 10 mM Tris pH 8, 10 mM MgCl2, 100 nM CTDSP1, 0.5 μM phosphate sensor (Thermo Fischer), 50 μM of REST peptide and various concentrations of peptide-GST fusions at room temperature for 10 min. All assays were performed in 96-well pates (Corning P/N 3686) rinsed with water 10 times. Fluorescence was measured by BioTek Synergy HTX using kinetic read with excitation at 420/27 nm and emission at 485/20 nm.

L5 DRGs = assay: qRT-PCR mRNA expression in ex vivo cultured L5 DRGs; format: cell-based, Sprague Dawley rat; conditions: DRG; 1 μM; 48 h
Method: FIG. 15. […] Error bars =standard error of the mean.
L5 DRGs were dissected from adult male rats and plated in 12-well plates pre-coated with poly-D-Lysine (PDL) and laminin in a minimal volume of medium (250 ul Neurobasal™-A medium (GIBCO) supplemented with B27 (GIBCO), 50 ng/ml NGF (Sigma-Aldrich) and penicillin streptomycin) to allow attachment to the culture plate. One day after plating, DRGs were incubated with RPP (SEQ. ID NO: 12: 1 μM, 3 μM or 10 μM in culture medium, FIGS. 14 and 16; SEQ ID NOS: 13 and 14: 3 μM, FIG. 15) for 48 h. For RNA expression analysis, DRGs were lysed in 300 μl of Qiazol in a 1.5 ml tube containing Bullet Blender Pink Beads using a Bullet Blender Tissue Homogenizer (NextAdvance). Total RNA was extracted using RNeasy Midi Kit (Qiagen) according to manufacturer's instructions. Purified RNA was quantified with NanoDrop 2000 (ThermoFIsher), and reverse transcription was run using High Capacity cDNA Reverse Transcription Kit (Applied Biosystems) and 2 ng/ul RNA per reaction. For qRT-PCR, 5 ul of cDNA (corresponding to 10 ng of RNA) were mixed with to 10 ul SsoAdvanced™ Universal SYBR® Green Supermix (BioRad) and 1 ul of each primer (final primer concentration 500 nM each). Reactions were run in triplicates in a QuantStudio™ 7 Flex Real-Time PCR system (Applied Biosystems). Amplification data were analyzed using the comparative cycle threshold (ΔΔCt) method and β-actin as calibrator. Primers were as follows: β-actin: F-[…] (SEQ ID NO: 340), R-[…] (SEQ ID NO: 333); KV4.3: F-[…] (SEQ ID NO: 341), R-[…] (SEQ ID NO: 342); KV7.2 F-[…] AG (SEQ ID NO: 343), R-[…] (SEQ ID NO: 344); OPRM1: F-[…] (SEQ ID NO: 345), R-[…] (SEQ ID NO: 346).

Substance	Relative Phosphatase activity (CTDSP1)	other results
MCAEDLQPPPLLEAHCGSDSGRKKRRQC [v43]	0.97	
MCAGDLEQPEPPVAKKKKKNC [v33]	0.00	inhibition of phosphatase activity (CTDSP1): 100%
MCAGDLKPPETTMSKKNC [v39]	0.59	
MCIADPEPPEAQLPEGNC [v14]	0.54	
MCNEALEPPPLRKEHC [v36]	0.68	
MCNGDLERPEPPVAKEYC [v34]	0.74	
MCPEDLERPPLTKEHC [v37]	0.16	
MCPEDLQPPEPALPEKKKKKIVVLALVVKSAVSVGVV [v41]	0.46	
MCPGDLKQPEPPMPKEYC [v11]	0.13	
MCSEAQEPPESRLPQVNC [v16]	0.79	
MCSEDPEPPKTTMTKKNC [v31]	0.43	
MCSVDLQPPARLRPMVNC [v20]	0.13	
MCSVDLQPPARLRPMVNC [v46]	0.37	
MCTAAPEPPEPPVSKEYC [v18]	0.43	
MCTAAPEPPEPQLPQANC [v44]	0.53	
MCTADLEPPEPRMEKKKVDC [v5]	0.49	
MCTADLKPPKTTMTKQNC [v10]	0.84	
MCTADLQPPEASLPQQNC [v49]	0.58	
MCTEALEPPEPPLTKENC [v47]	0.20	
MCTEAPAPPEPALPKKKKKKNC [v26]	0.46	
MCTEAPAPPEPALPKKKKKNC [v2]	0.66	
MCTEAPAPPEPALPKKKKKNC [v27]	0.19	
MCTEAPAPPEPALPKKKKNC [v4]	0.67	

Substance	Relative Phosphatase activity (CTDSP1)	other results
MCTEDLEPPEPPLPKENC [v1]		inhibition of phosphatase activity (CTDSP1): approximately 60%
MCTEDLEPPERPLPREIC [v38]	0.28	
MCTEDLEPPKATMTKKDC [v12]	0.41	
MCTEDLKPPEASLPEENC [v32]	0.89	
MCTEDLKPPEPPLPKENC [v35]	0.07	inhibition of phosphatase activity (CTDSP1): approximately 90%
MCTEDLQLPKTTMTKEYC [v19]	0.76	
MCTEDLQPPEPQLPEVNC [v23]	0.60	
MCTEDLQPPKTTMAEKYC [v30]	0.62	
MCTEDLQQPERSQPMESC [v40]	0.29	
MCTEDLQSPKTTMTKENC [v7]	0.24	
MCTEDLQSPKTTMTKENC [v28]	0.33	
MCTEDMEPRKTTMTKKYC [v25]	0.63	
MCTEDQEQQEEQLPEENC [v9]	0.65	
MCTEDQERPPVTKEDC [v13]	0.20	
MCTEVLVPRTTSGKGRLWFWLWSQKGHPSASACGS [v42]	0.48	
MCTGDLKLPEPPMSKKKKKNC [v29]	0.17	
MCTGDLQPPEAQVIEVNC [v22]	0.59	
MCTGDLQPPESRQPQVNC [v21]	0.26	
MCTGDLQPPKTTVSKKDC [v6]	0.77	
MCTGVQEPPEATLPKKNC [v15]	0.70	
MCTKDLAPQAPPLLKENC [v51]	0.71	
MCTKHLEPPGPPLPQENC [v17]	0.24	
SEQ ID NO: 14: RPP fused to an intracellular transport peptide and cyclized; sequence in Table 19 (cyclo([dR][dR][ξGly(dodecyl)][dR][dR][dR][dK][dP][dL][dP][dP][dE][dP][dP][dE][dL][dD][dE]); SMILES CCCCCCCCCCCCC1NC(=O)[C@@H](CCCNC(=N)N)NC(=O)[C@@H](CCCNC(=N)N)NC(=O)[C@@H](CCC(=O)O)NC(=O)[C@@H](CC(=O)O)NC(=O)[C@@H](CC(C)C)NC(=O)[C@@H](CCC(=O)O)NC(=O)[C@H]2CCCN2C(=O)[C@H]2CCCN2C(=O)[C@@H](CCC(=O)O)NC(=O)[C@H]2CCCN2C(=O)[C@H]2CCCN2C(=O)[C@@H](CC(C)C)NC(=O)[C@H]2CCCN2C(=O)[C@@H](CCCCN)NC(=O)[C@@H](CCCNC(=N)N)NC(=O)[C@@H](CCCNC(=N)N)NC(=O)[C@@H](CCCNC(=N)N)NC1=O)		Increase, Nav1.8 mRNA (L5 DRGs): 13x
